According to US20210139565A1 (GOVERNMENT OF THE UNITED STATES AS REPRESENTED BY THE …, published 2021):

Legend:
Y. pestis YscF protein = target: T1, Y. pestis YscF protein (Yersinia pestis KIM5, UniProt O68691 1-87); test: ELISA of periplasmic extract on YscF antigen and on blank wells, OD405
T1 construct: also called YscF antigen
T1 sequence: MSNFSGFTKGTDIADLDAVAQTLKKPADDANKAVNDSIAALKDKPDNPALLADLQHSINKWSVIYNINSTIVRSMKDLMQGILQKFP

Y. pestis F1 protein [1] = target: T2, Y. pestis F1 protein (Yersinia pestis KIM5, UniProt P26948 22-170); test: Microcal (calorimetry)
T2 construct: also called F1 antigen; Fl
T2 sequence (P26948 22-170 limits assumed): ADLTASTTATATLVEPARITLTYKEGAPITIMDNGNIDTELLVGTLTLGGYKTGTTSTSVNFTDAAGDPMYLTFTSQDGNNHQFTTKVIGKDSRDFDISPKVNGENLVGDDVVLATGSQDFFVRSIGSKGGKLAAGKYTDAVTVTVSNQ

Y. pestis F1 protein [2] = target: T2, Y. pestis F1 protein; test: SPR, BIACORE, F1 immobilized on CM5 chip
Y. pestis LcrV protein [3] = target: T3, Y. pestis LcrV protein (Yersinia pestis KIM5, UniProt P0C7U7 1-326); test: SPR, BIACORE, LcrV immobilized on CM5 chip
T3 construct: also called LcrV antigen
T3 sequence (P0C7U7 whole entry): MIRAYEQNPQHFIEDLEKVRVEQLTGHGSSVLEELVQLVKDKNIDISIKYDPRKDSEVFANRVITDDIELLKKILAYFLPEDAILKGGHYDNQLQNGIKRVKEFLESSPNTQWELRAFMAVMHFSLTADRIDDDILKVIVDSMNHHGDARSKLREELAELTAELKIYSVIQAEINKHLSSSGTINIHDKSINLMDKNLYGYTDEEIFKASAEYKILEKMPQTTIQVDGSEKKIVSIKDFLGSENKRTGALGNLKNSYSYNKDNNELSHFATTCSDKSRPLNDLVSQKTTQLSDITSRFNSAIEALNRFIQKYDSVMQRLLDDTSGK

Y. pestis LcrV protein [4] = target: T3, Y. pestis LcrV protein; test: SPR, BIACORE T200, LcrV on CM5 chip, kd/ka
Y. pestis LcrV protein [5] = target: T3, Y. pestis LcrV protein; test: SPR, BIACORE T200, LcrV on CM5 chip, 1:1 model
Y. pestis LcrV protein [6] = target: T3, Y. pestis LcrV protein; test: Microcal (calorimetry)

B1: 3yscf75 (VHH)
VHH: QVQLQESGGGLVQAGDSRILSCTASGRTFGRPFRYTMGWFRRAPGKEREFVGGITRSGNNIYYSDSVKGRFTISRDNAKNTVYLQMNSLKPEDTAVYYCNADWGWRNYWGQGTQVTVSS
B1: binds (Y. pestis YscF protein).

B2: 3F1 (VHH)
VHH: QVQLQESGGGLVQPGGSLRLSCAASGFTFSTSAMSWIRQPPGKAREVVATITSAGGSISYVNSVKGRFTISRDNAKNTLYLQMNMLKPEDTAVYYCARLVNLAQTGQGTQVTVSS
Work on B2 yielded a Kd (Y. pestis F1 protein [1]) of 110 nM and a Kd (Y. pestis F1 protein [2]) of 97 nM.

B3: 3F55 (VHH)
VHH: QVQLQESGGGLVQAGGSLRLSCAVSGMMYIREAIRWYRQAPGKQREWVAFVSSTGNPRYTDSVKGRFTISRDNAKNTVYLQMNSLTPEDTAVYYCNTYLGSRDYWGQGTQVTVSS
In the case of B3, the Kd (Y. pestis F1 protein [1]) is reported as 190 nM and the Kd (Y. pestis F1 protein [2]) is reported as 2.2 nM.

B4: 3F85 (VHH)
VHH: QVQLQESGGGLVQPGGSLRLSCAVSGMMYIRYTMRWYRQAPGKQREWVAVVSSTGNPHYADSVKGRFTISRDNAKNTVYLQMNSLTPEDTAVYYCNTYLGSRDYWGQGTQVTVSS
B4 was tested, and the Kd (Y. pestis F1 protein [1]) was 110 nM and the Kd (Y. pestis F1 protein [2]) was 15 nM.

B5: 2LCRV11 (VHH)
VHH: QVQLQESGGGLVQPGGSTRLSCAASGFTLDIYAIGWFRQAPGKEHEGVSWIVGNDGRTYYIDSVKGRFTISRDNAKNTVYLEMNSLKPEDTAVYYCAAKFWPRYYSGRPPVGRDGYDYWGQGTQVTVSS
Work on B5 yielded a Kd (Y. pestis LcrV protein [3]) of 8.2 nM, a Kd (Y. pestis LcrV protein [4]) of 8.2 nM and a koff (Y. pestis LcrV protein [5]) of 0.0072 s⁻¹. The kon (Y. pestis LcrV protein [5]) was 880000 M⁻¹ s⁻¹.

B6: 3yscf24 (VHH)
VHH: QVQLQESGGGLVQAGGSLKLSCTASQRTFSRYSLGWFRQAPGEERVFVAATTWSGISSDYADSVKGRFTISRDNAKNTGYLQMNNLKPEDTGVYYCAAGRSSWFAPWLTPYEYDYWGRGTQVTVSS
B6: binds (Y. pestis YscF protein).

B7: 1LCRV31 (VHH)
VHH: QVQLQESGGGLVQPGGSLGLSCAASGSLLNIYAMGWYRQAPGRQRELVATVTSSGTAEYADSVKGRFTISRDNAKNTVYLQMNSLRPEDTGVYYCNAHLRYGDYVRGPPEYNYWGQGTQVTVSS
B7 gave a Kd (Y. pestis LcrV protein [6]) of 0.76 nM, a Kd (Y. pestis LcrV protein [3]) of 0.0019 nM and a Kd (Y. pestis LcrV protein [4]) of 0.0019 nM. The koff (Y. pestis LcrV protein [5]) was 3.1e-07 s⁻¹ and the kon (Y. pestis LcrV protein [5]) was 170000 M⁻¹ s⁻¹.

B8: 3yscf142 (VHH)
VHH: QVQLQESGGGLVQAGGSLRLSCAASGRTFSSHAMAWFRQGPGEERQFLAAIRWNGDNIHYSDSAKGRFTISRDLAKNTLYLQMNSLKPEDTAVYYCARGVYDYWGQGTQVTVSS
B8: binds (Y. pestis YscF protein).

B9: 3yscf124 (VHH)
VHH: QVQLQESGGGLVQAGGSLRLSCVASGRAFSNYAMAWFRQAPGKEREFVAANWRSGGLTDYADSVKGRFTISRDDAKNTVYLQMNSLKPEDTAVYYCAAGGGSRWYGRTTASWYDYWGQGTQVTVSS
B9: binds (Y. pestis YscF protein).

B10: 3yscf140 (VHH)
VHH: QVQLQESGGGLVQAGGSLRLACAASGETVDDLAIGWFRQAPGKEREEISCISGSDGSTYYADSLSGRFTISRDNVKNTVYLQMNSLKLEDTAVYYCYAEIYDRRWYRNDYWGQGTQVTVSS
B10: binds (Y. pestis YscF protein).

B11: 1LCRV32 (VHH)
VHH: QVQLQESGGGMVEPGGSLRLSCAASGFRFSSYAMSWVRQAPGKGLERVSAINSDGDKTSYADSVKGRFTISRDNARNTLYLQMSNLKPEDTAVYYCADRDLYCSGSMCKDVLGGARYDFRGQGTQVTVSS
With B11 the Kd (Y. pestis LcrV protein [6]) was 26 nM, the Kd (Y. pestis LcrV protein [3]) was 22 nM and the Kd (Y. pestis LcrV protein [4]) was 22 nM. The koff (Y. pestis LcrV protein [5]) was 0.0073 s⁻¹ and the kon (Y. pestis LcrV protein [5]) was 340000 M⁻¹ s⁻¹.

B12: 1LCRV28 (VHH)
VHH: QVQLQESGGGLVQPGGSLRLSCAASGGTLGYYAIGWFRQAPGKEREAVSCITSSDTSAYYADSAKGRFTISRDNAKNTMYLQMNNLKPEDTAVYYCAAGYYFRDYSDSYYYTGTGMKVWGKGTQVTVSS
Binder B12 has a Kd (Y. pestis LcrV protein [6]) of 0.2 nM, a Kd (Y. pestis LcrV protein [3]) of 0.19 nM and a Kd (Y. pestis LcrV protein [4]) of 0.19 nM. The koff (Y. pestis LcrV protein [5]) was 8.1e-05 s⁻¹ and the kon (Y. pestis LcrV protein [5]) was 430000 M⁻¹ s⁻¹.

B13: 4F1 (VHH)
VHH: QVQLQESGGGLVQPGGSLSLSCSASGIIFSDYALTWYRQAPGKQREWVAQITRSQNINYTGSVKGRFTVSRDNAKNTVHLQMNSLKPEDTAVYYCHAYDGRRPPYWGQGTQVTVSS
B13 was tested, and the Kd (Y. pestis F1 protein [2]) was 520 nM.

B14: 4F6 (VHH)
VHH: QVQLQESGGGSVQPGGSLSLSCSASGIIFSDYALTWYRQAPGKQREWVAQITRSQNINYTGSVKGRFTVSRDNAKNTVHLQMNSLKPEDTAVYYCHAYDGRRRTYWGQGTQVTVSS
B14 gave a Kd (Y. pestis F1 protein [1]) of 80 nM and a Kd (Y. pestis F1 protein [2]) of 34 nM.

B15: 4F34 (VHH)
VHH: QVQLQESGGGSVQPGGSLSLSCSASGIIFSDYALTWYRQAPGKQREWVAQITRSQNINYTGSVKGRFTVSRDNAKNTVHLQMNSLKPEDTAVYYCHAYDGRRPPYWGQGTQVTVSS
For B15, the Kd (Y. pestis F1 protein [2]) was 390 nM.

B16: 3F61 (VHH)
VHH: QVQLQESGGGLVQPGGSLRLSCSASGIIFSDYALTWYRQAPGKQREWVAQITRSQNINYTGSVKGRFTVSRDNAKNTVHLQMNSLKPEDAAVYYCHAYDGRRPPYWGQGTQVTVSS
B16 showed a Kd (Y. pestis F1 protein [1]) of 290 nM and a Kd (Y. pestis F1 protein [2]) of 68 nM.

B17: 1LCRV13 (VHH)
VHH: QVQLQESGGGLVRPGGSLKLSCAASGFTFNWYTMAWYRQVPGEERKMVATITGASGDTKYADSVKGRFTISRDNAKNTVTLQMNSLKPGDTAVYYCHAYLTYDSGSVKGVNYWGQGTQVTVSS
With B17 the Kd (Y. pestis LcrV protein [6]) was 3.2 nM, the Kd (Y. pestis LcrV protein [3]) was 0.00063 nM and the Kd (Y. pestis LcrV protein [4]) was 0.00063 nM. For the same binder, the koff (Y. pestis LcrV protein [5]) was 1.6e-07 s⁻¹ and the kon (Y. pestis LcrV protein [5]) was 250000 M⁻¹ s⁻¹.

B18: 1LCRV81 (VHH)
VHH: QVQLQESGGGSVQPGGSLKLSCAASGFTFNWYTMAWYRQVPGEERKMVATITGASGDTKYADSVKGRSTISRDNAKNTVTLQMNSLKPGDTAVYYCHACLTYDSGSVKGVNYWGQGTQVTVSS
Binder B18 has a Kd (Y. pestis LcrV protein [3]) of 3.5 nM, a Kd (Y. pestis LcrV protein [4]) of 3.5 nM and a koff (Y. pestis LcrV protein [5]) of 0.00063 s⁻¹. For the same binder, the kon (Y. pestis LcrV protein [5]) was 180000 M⁻¹ s⁻¹.

B19: 4F59 (VHH)
VHH: QVQLQESGGGLVRPGGSLRLSCEASGTTFRSLVMKWYRQAPGKEREWVAFISSPGDRTRYTEAVKGRFTISRDNAKNALYLQMNGLKPEDTAVYYCNANGIYWGKGTQVTVSS
With B19 the Kd (Y. pestis F1 protein [1]) was 83 nM and the Kd (Y. pestis F1 protein [2]) was 27 nM.

B20: 3yscf57 (VHH)
VHH: QVQLQESGGGLVQAGGSLRLSCAASGRTWRAYYMGWFRQAPGKEREFVAVMSRSGGTTSYADSVKGRFTISRDNAKNTVYLQMNNLAPEDTATYYCKAGGGMYGPDLYGMTYWGKGTQVTVSS
B20: binds (Y. pestis YscF protein).

B21: 3yscf15 (VHH)
VHH: QVQLQESGGGLVQAGGSLRLSCAVSGRTFSRYAMGWFRQAPGKEREFVAAISWSGSSTYYADSVKGRFTISRDHAKNVMYLQMNGLKPEDTGVYVCARPAYGLRPPYNYRGQGTQVTVSS
B21: binds (Y. pestis YscF protein).

B22: 1LCRV47 (VHH)
VHH: QVQLQESGGGLVQPGGSLILSCTISGASLRDRRVTWSRQGPGKSLEIIAVMAPDYGVHYFGSLEGRVAVRGDVVKNTVYLQVNALKPEDTAIYWCSMGNIRGLGTQVTVSS
B22 gave a Kd (Y. pestis LcrV protein [3]) of over 1000 nM.

B23: 3F59 (VHH)
VHH: QVQLQESGGGLVQPGGSLRLSCAASGFTFSSYAMSWVRLAPGKGLEWVSTINIAGGITSYADSVKGRFTISRDNAKNTLYLQMNSLKPEDTAVYYCAKTAANWSAQRGQGTQVTVSS
B23 showed a Kd (Y. pestis F1 protein [2]) of 5.9 nM.

B24: 3F5 (VHH)
VHH: QVQLQESGGGLVQSGDSLRLSCAASGFTFSNYAMSWVRQAPGKGLEWVSTINSGGGSTSYAYSVKGRFTISRDNAKNTLYLQMNSLKPEDTAVYYCAKTASHIPLSQGTQVTVSS
For B24, the Kd (Y. pestis F1 protein [1]) was 83 nM and the Kd (Y. pestis F1 protein [2]) was 47 nM.
